{
  "source": "patent US20240199757A1",
  "about": "(UNIVERSITY OF CHICAGO, published 2024)",
  "binders": {"B1": {"name": "1789 Fab (Fab, V domains shown)", "VH": "EVQLVESGGGLVQPGGSLRLSCAASGFNVSYSSIHWVRQAPGKGLEWVASISSSSGYTYYADSVKGRFTISADTSKNTAYLQMNSLRAEDTAVYYCARNYWGWYPFYYFAFDYWGQGTLVTV", "VL": "DIQMTQSPSSLSASVGDRVTITCRASQSVSSAVAWYQQKPGKAPKLLIYSASSLYSGVPSRFSGSRSGTDFTLTISSLQPEDFATYYCQQGWDYPITFGQGTKVEIKR"}},
  "key": {"[1]": {"molecular_target": "T1, N-terminal domain of human NT5E (human, UniProt P21589 27-335)", "T1 construct": "also called N-terminal hNT5E", "T1 sequence": "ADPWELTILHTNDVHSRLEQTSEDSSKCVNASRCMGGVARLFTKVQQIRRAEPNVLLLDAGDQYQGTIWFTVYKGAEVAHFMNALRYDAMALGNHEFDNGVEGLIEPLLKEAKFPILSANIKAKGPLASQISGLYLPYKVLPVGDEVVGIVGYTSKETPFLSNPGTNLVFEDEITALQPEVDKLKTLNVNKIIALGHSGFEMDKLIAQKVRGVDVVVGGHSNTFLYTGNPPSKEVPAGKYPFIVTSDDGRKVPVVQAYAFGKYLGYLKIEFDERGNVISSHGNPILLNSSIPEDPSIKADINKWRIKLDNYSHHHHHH", "assay": "SPR, His-captured N-terminal domain, single injection, ATP-free buffer", "experimental": "(§1) All SPR experiments were performed at 25° C. using MASS-1 (Bruker) instrument. hNT5E, mNT5E and cNT5E were immobilized onto a nitrilotriacetic acid (NTA) sensor chip via His-tag. For kinetic experiments, after ligand immobilization, 2-fold serial dilutions of the Fabs were injected. After double-reference subtraction data were analyzed with BiaEvaluation (GE Healthcare) or Sierra Analyser (Bruker) software. The experiments were carried in buffers in presence and absence of 1 mM ATP to compare the kinetic parameters of the Fabs binding to closed and open form of NT5E.\nIn the domain binding experiments, full-length, N-terminal, and C-terminal hNT5E were immobilized as described above."}, "[2]": {"molecular_target": "T2, hNT5EDF (substrate binding knock-out variant of hNT5E) (human)", "assay": "DSF thermal shift, 1.5-fold molar excess of Fab, no ATP (hNT5EDF alone 44° C.)", "experimental": "(§2) With 1 mM ATP alone (red dashed line), the TM shifts from one transition at 49° C. to two transitions at TM 59° C. and 64° C. […] Thermal shift assays of substrate binding knock-out variants hNT5EDF (FIG. 2B) and hNT5EFF (FIG. 2C) show no change in thermal stability with the addition of ATP.\n(§3) Thermal stability of samples was analyzed by differential scanning fluorimetry (DSF) using a real-time PCR instrument (Bio-Rad CFX384). Protein samples were mixed with 4× Sypro Orange at a final 4 μM concentration. For target/Fab complexes, 1.5-fold molar excess of Fab was used. All reactions were performed in triplicates in a 384-well plate. Thermal melting curves were monitored from 25° C. to 95° C. in steps of 0.5° C./30 s. Wavelengths of 490 and 575 nm were used for excitation and emission, respectively. The melting temperatures were inferred from the first derivative of the melting curves from the mean of triplicate runs using CFX software provided by the manufacturer."}, "[3]": {"molecular_target": "T3, Full-length cynomolgus NT5E (recombinant) (cynomolgus, UniProt P21589 27-549 (human entry))", "T3 construct": "also called cNT5E; cyno NT5E", "T3 chain": "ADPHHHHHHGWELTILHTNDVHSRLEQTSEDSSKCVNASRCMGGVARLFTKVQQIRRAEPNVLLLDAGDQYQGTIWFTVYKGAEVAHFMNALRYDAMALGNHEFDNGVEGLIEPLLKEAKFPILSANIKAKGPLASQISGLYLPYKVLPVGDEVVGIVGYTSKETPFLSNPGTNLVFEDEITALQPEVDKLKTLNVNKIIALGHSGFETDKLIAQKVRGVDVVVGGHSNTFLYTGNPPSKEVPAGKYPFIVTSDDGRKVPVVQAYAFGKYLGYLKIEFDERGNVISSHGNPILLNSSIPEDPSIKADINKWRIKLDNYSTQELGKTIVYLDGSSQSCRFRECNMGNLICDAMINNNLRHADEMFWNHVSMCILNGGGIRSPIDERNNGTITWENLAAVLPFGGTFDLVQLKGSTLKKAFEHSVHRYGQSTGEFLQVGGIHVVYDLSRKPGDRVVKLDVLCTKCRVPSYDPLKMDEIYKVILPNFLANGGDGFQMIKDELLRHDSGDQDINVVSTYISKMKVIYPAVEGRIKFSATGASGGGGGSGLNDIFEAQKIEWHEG", "assay": "SPR, His-captured NT5E, no ATP", "experimental": "as §1"}, "[4]": {"molecular_target": "T4, Full-length human NT5E (recombinant, in-house) (human, UniProt P21589 27-549)", "T4 construct": "also called hNT5E; hNT5EWT", "T4 sequence": "T3 chain with T209M, M363T, I476V", "assay": "SPR, His-captured NT5E, no ATP", "experimental": "as §1"}, "[5]": {"molecular_target": "T2, hNT5EDF (substrate binding knock-out …)", "assay": "DSF thermal shift, 1.5-fold molar excess of Fab, 1 mM ATP (hNT5EDF alone 46° C.)", "experimental": "as §2, §3"}},
  "note": "Changes are numbered by the printed parent chain.",
  "data": [
    {"binder": "B1", "values": [
      {"measurement": "binding result", "setting": "[1]", "value": "no binding (tested: 200 nM)"},
      {"measurement": "TM of NT5E in the presence of the Fab", "setting": "[2]", "value": 48, "unit": "° C."},
      {"measurement": "Kd", "setting": "[3]", "value": 150, "unit": "nM"},
      {"measurement": "koff", "setting": "[3]", "value": 0.02, "unit": "s⁻¹"},
      {"measurement": "Kd", "setting": "[4]", "value": 760, "unit": "nM"},
      {"measurement": "koff", "setting": "[4]", "value": 0.044, "unit": "s⁻¹"},
      {"measurement": "kon", "setting": "[4]", "value": 57000, "unit": "M⁻¹ s⁻¹"},
      {"measurement": "TM of NT5E in the presence of the Fab", "setting": "[5]", "value": 46, "unit": "° C."}
    ]}
  ]
}
